Reference: publication PMC4701444 (PLoS ONE, 2016)
pKd: −log10 of the molar value.

How the values were obtained:
[1] = molecular target: F*PfRON2sp1 (39 aa) [2021-2059], fluorescein-labeled PfRON2sp1 peptide (Plasmodium falciparum); assay: fluorescence polarisation; anisotropy kinetics at 20°C; association: 10 nM labeled probe with 50, 100, 200 nM protein; dissociation: 10 nM preformed complex challenged with 2500 or 5000 nM unlabeled PfRON2sp1; global fit to a one-intermediate model; PBS pH 7.4, at least 0.1% BSA
[2] = molecular target: F*PfRON2sp1 (39 aa) [2021-2059], fluorescein-labeled PfRON2sp1 peptide (Plasmodium falciparum); assay: fluorescence polarisation; anisotropy titration at 20°C; 10 nM F*PfRON2sp1 titrated with protein (0 to 10 μM); PBS pH 7.4, at least 0.1% BSA
[3] = molecular target: F*PfRON2sp1 (39 aa) [2021-2059], fluorescein-labeled PfRON2sp1 peptide (Plasmodium falciparum); assay: fluorescence polarisation; anisotropy kinetics at 25°C; association: 10 nM labeled probe with 50, 100, 200 nM protein; dissociation: 10 nM preformed complex challenged with 2500 or 5000 nM unlabeled PfRON2sp1; global fit to a one-intermediate model; PBS pH 7.4, at least 0.1% BSA
[4] = molecular target: F*PfRON2sp1 (39 aa) [2021-2059], fluorescein-labeled PfRON2sp1 peptide (Plasmodium falciparum); assay: fluorescence polarisation; anisotropy titration at 30°C; 10 nM F*PfRON2sp1 titrated with protein (0 to 10 μM); PBS pH 7.4, at least 0.1% BSA
[5] = molecular target: F*PfRON2sp1 (39 aa) [2021-2059], fluorescein-labeled PfRON2sp1 peptide (Plasmodium falciparum); assay: fluorescence polarisation; anisotropy titration at 25°C; 10 nM F*PfRON2sp1 titrated with protein (0 to 10 μM); PBS pH 7.4, at least 0.1% BSA
[6] = molecular target: F*PfRON2sp1 (39 aa) [2021-2059], fluorescein-labeled PfRON2sp1 peptide (Plasmodium falciparum); assay: fluorescence polarisation; anisotropy kinetics at 30°C; association: 10 nM labeled probe with 50, 100, 200 nM protein; dissociation: 10 nM preformed complex challenged with 2500 or 5000 nM unlabeled PfRON2sp1; global fit to a one-intermediate model; PBS pH 7.4, at least 0.1% BSA
[7] = molecular target: ΔDII-PfAMA1 (PfAMA1 DI-DII with residues 351-387 of the DII loop replaced by 7 Gly/Ser residues) (Plasmodium falciparum) (UniProt Q7KQK5); assay: ITC; 25°C, MicroCal iTC200; cell: PfAMA1 or ΔDII-PfAMA1 (10 μM); syringe: PfRON2D3-TRX (110 μM), 17 injections of 2.2 μL; 20 mM Hepes pH 7.5, 150 mM NaCl; one binding site model

ΔDII-PfAMA1 (PfAMA1 DI-DII with residues 351-387 of the DII loop replaced by 7 Gly/Ser residues) (from UniProt Q7KQK5 104-350; Q7KQK5 388-438) (domain or fragment)
pKd [1]: 7.30 | complex half-life (calculated from the one-intermediate model) [1]: 166 s | complex half-life (experimental) [1]: 100 s | k1 (step 1, forward: reactants to intermediate) [1]: 78900 M⁻¹ s⁻¹ | k1/k2 (association constant of step 1) [1]: 1.89e+07 M⁻¹ | k2 (step 1, reverse: intermediate to reactants) [1]: 0.00417 s⁻¹ | k3 (step 2, forward: intermediate to complex) [1]: 0.00459 s⁻¹ | k3/k4 (equilibrium constant of step 2) [1]: 0.056 | k4 (step 2, reverse: complex to intermediate) [1]: 0.0812 s⁻¹ | pKd [2]: 7.22 | pKd [3]: 7.10 | complex half-life (calculated from the one-intermediate model) [3]: 69.9 s | complex half-life (experimental) [3]: 48 s | dH (overall, summation of the transition states from the kinetic fit) [3]: -10.6 kcal/mol | dH of step 1 (formation of the intermediate) [3]: -16.7 kcal/mol | k1 (step 1, forward: reactants to intermediate) [3]: 116000 M⁻¹ s⁻¹ | k1/k2 (association constant of step 1) [3]: 1.17e+07 M⁻¹ | k2 (step 1, reverse: intermediate to reactants) [3]: 0.0099 s⁻¹ | k3 (step 2, forward: intermediate to complex) [3]: 0.0074 s⁻¹ | k3/k4 (equilibrium constant of step 2) [3]: 0.067 | k4 (step 2, reverse: complex to intermediate) [3]: 0.11 s⁻¹ | pKd [4]: 6.90 | pKd [5]: 7.03 | pKd [6]: 6.90 | complex half-life (calculated from the one-intermediate model) [6]: 30 s | complex half-life (experimental) [6]: 30 s | k1 (step 1, forward: reactants to intermediate) [6]: 168000 M⁻¹ s⁻¹ | k1/k2 (association constant of step 1) [6]: 7.35e+06 M⁻¹ | k2 (step 1, reverse: intermediate to reactants) [6]: 0.0229 s⁻¹ | k3 (step 2, forward: intermediate to complex) [6]: 0.0117 s⁻¹ | k3/k4 (equilibrium constant of step 2) [6]: 0.08 | k4 (step 2, reverse: complex to intermediate) [6]: 0.147 s⁻¹

PfRON2D3-TRX (thioredoxin fusion of PfRON2D3, amino acids Asp2021 to Ser2059) (domain or fragment)
pKd [7]: 7.03 | dH [7]: -11.8 kcal/mol
